Tests used:
Format in all cases: biochemical, Streptomyces melanosporofaciens
steady-state kinetics [1] = substrate: CC(C)=CCC/C(C)=C/COP(=O)(O)OP(=O)(O)O; experiment: steady-state kinetics; conditions: prenylation; saturating indole as co-substrate; Mg2+-dependent
steady-state kinetics [2] = substrate: c1ccc2[nH]ccc2c1; experiment: steady-state kinetics; conditions: prenylation acceptor; saturating GPP as co-substrate; Mg2+-dependent
[3] = substrate: CC(C)=CCC/C(C)=C/CC/C(C)=C/CC/C(C)=C/COP(=O)(O)OP(=O)(O)O; experiment: steady-state kinetics, nonlinear fit of initial velocities; conditions: cyclization reaction; Mg2+-dependent

B1: cyclooctat-9-en-7-ol synthase (CotB2) (Streptomyces melanosporofaciens) (protein)
chain: MTTGLSTAGAQDIGRSSVRPYLEECTRRFQEMFDRHVVTRPTKVELTDAELREVIDDCNAAVAPLGKTVSDERWISYVGVVLWSQSPRHIKDMEAFKAVCVLNCVTFVWDDMDPALHDFGLFLPQLRKICEKYYGPEDAEVAYEAARAFVTSDHMFRDSPIKAALCTTSPEQYFRFRVTDIGVDFWMKMSYPIYRHPEFTEHAKTSLAARMTTRGLTIVNDFYSYDREVSLGQITNCFRLCDVSDETAFKEFFQARLDDMIEDIECIKAFDQLTQDVFLDLIYGNFVWTTSNKRYKTAVNDVNSRIQ
Km (steady-state kinetics [1]): 390 ± 20 µM
Km (steady-state kinetics [2]): 290 ± 60 µM
Km [3]: 43 ± 6 µM
kcat [3]: (6.7 ± 0.3) × 10^−3 s^−1

— article PMC8594881
